Measurements taken from paper PMC10720262 (Cell Reports, 2023).
Numbering of substitutions follows the chain as printed.

B1: CL-509293 (antibody, V domains shown)
VH: QVQLVASGGGVVQPGRSLRLTCAASGFTFSNYGMHWVRQSPGRGLEWVAIIWYDGSNKFYADSVKGRFTISRDNSKNTLYLQMNSLRAEDTAVYYCAKAEQRTNDNYYKYGMDVWGQGTTVTVST
VL: not shown
B2: CL-462911 (antibody, V domains shown)
VH: QVHLVESGGGVVQPGRSLTLSCAASGFTFSSCGMHWVRQAPGKGLEWLAVIWYDGSNKYYADSVKGRFTISRDNSKNTLYLQMNSLRAEDTAVYYCARDGGYVRDYYYGMDVWGQGTTVTVSS
VL: not shown
B3: CL-460619 (antibody, V domains shown)
VH: QVQLVESGGGVVQPGRSLRLSCAASGFTFDYYGMHWVRQAPGKGLEGVAIIWYDGSNKFYADSVKGRFTISRDNSKNTLYLQMTSLRVEDTAVYYCARDGRIGDPGPYFDYWGQGTLVTVSS
VL: EIVMTQSPATLSVSPGERPTLSCRASQSVSSKLAWYQQKPDQAPRLLIYGASTRATGIPPRFSGSGSGTEFTLTIDSLQSEDFAVYYCQQYHKWWTFGQGTKVEIK
B4: CL-509880 (antibody, V domains shown)
VH: QVQLVESGGGVVQPGRSLRLSCAASGFTFSNSGMHWVRQAPGKGLEWVAVIWYDGSNKYYADSVKGRFTVTRDNSKNTLYLQMNSLRAEDTAVYYCVRAYYGSGSYHFKYGMDVWGQGTTVTVSS
VL: not shown
B5: CL-508731 (antibody, V domains shown)
VH: QVQLVESGGGVVQPGRSLRLSCVASGFTFSNNGMHWVRQAPGKGLEWVAIIWHDGSNKFYAESVRGRFTISRDNSNNTLYLQMNSLRAEDTAVYYCARDRMFGSGSWNYFDPWGQGTLVTVSS
VL: EIVLTQSPATLSLSPGERATLSCRASQSISTYLAWYQQKPGQAPRLLIYDASNRATGIPARFSGSGSGTDFTLTISSLEPEDFAVYYCQQRSYWWTFGQGTKVEIK
B6: CL-509993 (antibody, V domains shown)
VH: B5 VH with H53Y, F59Y, E62D, R65K, S106T
VL: B5 VL with I29V, S30T, Y93N
B7: CL-510082 (antibody, V domains shown)
VH: B5 VH with R16K, V37I, H53Y, E62D, R65K, N76H, S106T
VL: B5 VL with I29V
B8: CL-462788 (antibody, V domains shown)
VH: QVQLVESGGGVVQPGRSLRLSCAASGFTFRNYGMHWVRQAPGKGLEWVAIIWYDGSYKFYADSVKGRFTISRDNSKNTLYLQMNSLRAEDTAMYYCARDDALELRSFDIWGQGTMVTVSS
VL: DVVMTQSPLSLPVTLGQPASISCRSSQSLVYSDENTYLSWFQQRPGQSPRRLIYKISNRDSGVPDRFSGSGSGTDFTLKISRVEAEDVGVYYCMQGTHWPRTFGQGTEVEIK
B9: CL-509177 (antibody, V domains shown)
VH: QVQLVESGGGVVQPGRSLRLSCAASGFSFSSYGMHWVRQTPGKGLEWVAIIWYDGSNKFYADSVKGRFIISRDNSKNTLYLQMNSLRAEDTAVYYCARDGGYSTSAGDFDYWGQGTLVTVSS
VL: EIVLTQSPGTLSLSPGERATLSCRASQSVSSSYLAWYQQKPGQAPRLLIYGASSRATGIPDRFSGRGSGTDFTLTISRLEPEDFAVYYCQQYVSSFTFGPGTKVDIN
B10: CL-509025 (antibody, V domains shown)
VH: QVQLVESGGGVVQPGRSLRLSCVASGFTFSDYGMHWVRQAPGKGLEWVAVIWYDGTKEFFADSVKGRFTISRDNSKDTLYLQMNSLRAEDTGIYYCATYKWNSHLDYWGQGTLVTVSS
VL: EIVLTQSPATLSLSPGERATLSCRASQTISSYLAWYQQKPGQAPRLLIYDASNRATGIPARFSGSGSGTDFTLTISSLEPEDFTVYYCQQRSNWPLTFGGGTKVGIK
B11: CL-509370 (antibody, V domains shown)
VH: QVQLVESGGGVVQPGRSLRLSCAASGFTFSSYGMHWVRQAPGKGLEWVAVIWYDGSNKFYADSVKGHFTISRDNSKNTLYLQMNSLRAEDTAVYYCARDGRDLRGTGPYFDPWGQGTLVTVSS
VL: EIVMTQSPATLSVSPGERAILSCRASQSVSSNLAWYQQKPGQAPRLLIYGASIRATGIPARFRGSGSGTEFTLTISILQSEDFAVYYCQQYNNWITFGQGTRLEIK
B12: CL-509930 (antibody, V domains shown)
VH: QVQLVESGGGVVQPGRSLRLSCAASGFTFSSYGMHWVRQAPGKGLEWVAIIWHDGSNKYYADSVKGRFTISRDNSKNTLYLQMNSLRAEDTAVYYCARDYSSFYFDYWGQGTLVTVSS
VL: not shown
B13: CL-464097 (antibody, V domains shown)
VH: QVQLVESGGGAVQPGRSLRLSCAASGFTFSYNGMHWVRQAPGKGLEWVAIIWYDGSNKYYAESVKGRFTISRDNSKDTLYLQMNSLRAEDTAIYYCVRAWNYEDKKYSMDVWGQGTTVTVSS
VL: DIQMTQSPSTLSASVGDRVTITCRASQSISSWLAWYQQKPGKAPKLLIYKASSLESGVPSRFSGSGSGTDFTLTISSLQPDDFATYYCQQYNYFWTFGQGTKVEIR
B14: CL-510092 (antibody, V domains shown)
VH: QVQLVESGGGVVQPGTSLRLSCAASGFTFSNFGMYWVRQAPGKGLEWVALIWYDGSNKFYEDSVKGRFTISRDNSKNTLYLQMNSLRAEDTAVYYCAKDGGYSGPGKYGFFRHWGQGSLVTVSS
VL: B13 VL with M4L, S31N, S65N, D70E, Q89H, Y93F, F94Y, R106K
B15: CL-510416 (antibody, V domains shown)
VH: QVQLVESGGGVVQPGRSLRLSCEASGFTFSNYGMHWVRQGPGKGLEWVALMWYDGSNKYYSDSVKGRFTISRDNSKSTLYLQMNSLRAEDTAVYYCARPITGNTHSKYTMDVWGQGTTVTVSS
VL: B13 VL with S53T, D70E, Y87F, Y93S, F94Y, R106K
B16: CL-510020 (antibody, V domains shown)
VH: QVQLVESGGGVVQPGRSLRLSCAASGFTFSSFGMYWVRQAPGKGLEWVALIWYDGSNQYYADSVKGRFTISRDNSKNTLYLQMNSLRAEDTAVYYCARAGYFYGSGSPLDYWGQGTLVTVPS
VL: B13 VL with R18G, K50M, D70E, N92Y, Y93N, F94Y, R106K
B17: CL-510373 (antibody, V domains shown)
VH: QVQLVESGGGVVQPGRSLKLSCAASGFTFSSYGMHWVRQAPGRGLEWVSIIWYDGSNKFYSDSVQGRFTISRDDSKNTLYLQMNSLRAEDTAMYYCAMVANYTISSGAFDIWGHGTMVTVSS
VL: B13 VL with S31N, P40S, D70E, Y87F, N92K, Y93T, F94Y, R106K
B18: CL-509494 (antibody, V domains shown)
VH: B1 VH with A6E, T21S, Y32F, N57H, A99S, N106H
VL: B13 VL with K45T, D70E, N92T, Y93N, F94Y, R106K
B19: CL-508758 (antibody, V domains shown)
VH: QVQLVESGGGVVQPGRSLRLSCAASGFTFSNYGMHWVRQTPGRDLEWVAIIWYDGSYKFYADSVKGRFSISRDNSKNTLNLEMKSLRVEDTAVYYCAKAYDTSSDDKYGMDVWGQGTTVTVTS
VL: B13 VL with S31I, K50R, S53D, D70G, Y93S, F94Y, R106K
B20: CL-464181 (antibody, V domains shown)
VH: QVQLVESGGGAVQAGTSLRLSCAASGFSFSYNGMHWVRQGPGKGLEWVAIIWYDGGNKFYADSVKGRFTISRDNSKKMLYLQMNRLRAEDTAVYYCARAWNFADNKYSMDVWGQGTTVTVSA
VL: B13 VL with S31C, K45Q, D70E, N92Y, Y93I, F94Y, E104D, R106K
B21: CL-510418 (antibody, V domains shown)
VH: QVQLVESGGGVVQPGQSLRLSCEASGFTFSNYGMHWVRQAPVKGLEWVAIIWFDGSYKYYADSVKGRFTVSRDNSKNTLYLQMDSLRAEDTAVYYCARARKGQRSDYYGSETSYTFDNWGQGTLVTVSS
VL: B13 VL with S30N, L46F, S53I, V58I, D70E, Y93S, F94Y, R106K
B22: CL-464277 (antibody, V domains shown)
VH: QVQLVASGGGVVQPGRSLRLSCAVSGFTFRNYGMHWVRQDPGRGLEWVAIIWYDGSYKFYADSVKGRFTISRDNSKNTLYLQMNSLRAEDTAVYYCARSYGSLTGDQTKYGMDVWGQGTTVSVSS
VL: not shown
B23: CL-509940 (antibody, V domains shown)
VH: QVQLVESGGGVVQPGRSLRLSCAASGFTFSTYGMHWVRQAPGKGLEWVAVIWYDGSIKFYADSVKGRFTISRDDSKNTLYLQMNSLRAEDTAVYYCARDGGYSDSGRFGWFDPWGQGNLVTVSS
VL: EIVMTQSPVTLSVSPGERVTLSCRASQSVSSNLAWYQQKPGQAPRLLIYGASNRATGIPDRFSGSGSGTEFSLTVTSLQSEDFAVYYCQQYNQWRTFGQGTKVEIR
B24: CL-509326 (antibody, V domains shown)
VH: QVYLVESGEGVVQPGRSLRLSCAASGFTFSNYGMHWVRQAPGKGLEWVAVIWYNGNNKFYADSVKGRFTISRDNSKNTLFLQMNSLRAEDTAVYFCARSGYSRSSYFDYWGQGTLVTVSS
VL: QSVLTQPPSVSGAPGQRVTISCTGSSSNIGAVYDVHWYQQLPGTAPKLLIYGNTNRPSGVPDRFSGSQSGTSASLAITGLQAEDEADYYCQSYDSSLSGSVFGGGTKLTVL

Biological target: recombinant full-length PfCSP (Plasmodium falciparum circumsporozoite protein, strain NF54) (Plasmodium falciparum NF54, UniProt P19597)
Sequence (P19597 20-375): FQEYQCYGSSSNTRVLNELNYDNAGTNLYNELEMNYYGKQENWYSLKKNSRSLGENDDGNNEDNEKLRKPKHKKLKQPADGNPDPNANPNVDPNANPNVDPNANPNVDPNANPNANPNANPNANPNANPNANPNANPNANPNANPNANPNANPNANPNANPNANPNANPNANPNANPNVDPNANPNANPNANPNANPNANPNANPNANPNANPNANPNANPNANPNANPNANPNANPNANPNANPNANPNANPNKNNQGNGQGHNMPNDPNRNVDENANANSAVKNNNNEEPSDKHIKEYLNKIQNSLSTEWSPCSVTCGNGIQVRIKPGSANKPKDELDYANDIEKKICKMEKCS

Binding result, binds:
B1
B2
B3
B4
B5
B6
B7
B8
B9
B10
B11
B12
B13
B14
B15
B16
B17
B18
B19
B20
B21
B22
B23
B24
